Tests used:
Assay type in all cases: cell-based
[1] = tested on: PKC, Raf, ERK 1/2, PDK1 phosphorylation in adult rat cardiomyocytes; test: Western blot analysis of signaling protein phosphorylation (PKC/ERK pathway)
Description: FIG. 3A is a photograph of an electrophoretic gel. HASF activates the PKC pathway. A. Western blots analysis for various signaling proteins. Serum-starved adult rat cardiomyocytes were stimulated with 100 nM HASF recombinant protein for various time courses. Cell lysate was collected and the proteins were resolved by SDS-PAGE. Insulin from bovine pancreas was used as a positive control. min: minutes of treatment.
FIG. 3B is a photograph of an immunoblot. Serum-starved adult rat cardiomyocytes were pre-treated with 3 μM PKC inhibitors BIM, Gö6976, or Gö6983 for 30 minutes, then stimulated with 100 nM HASF recombinant protein for 5-10 min and cells were harvested. Total cell lysates were used to analyze the levels of ERK1/2 phosphorylation by western blot analysis.
FIG. 4A is a photograph of an immunoblot. Western blot analysis for PKC E and PKC delta phosphorylation on total cell lysates from serum-starved adult rat cardiomyocytes stimulated with 100 nM HASF recombinant protein at 5 and 30 min. HASF b1 and b2 represent different batches of recombinant protein. PMA was used as positive control.
FIG. 4B is a photograph of an immunoblot. Western blot analysis for ERK1/2 phosphorylation on total cell lysates from adult rat cardiomyocytes pre-treated with 10 pM PKC epsilon translocation inhibitor peptide for 20 min, then 100 nM HASF recombinant protein was added for 5 min or 10 min.
FIGS. 8A-B are photographs of immunoblots. Western blot analysis for PKC a/b and PKC theta phosphorylation on total cell lysates from serum-starved adult rat cardiomyocytes stimulated with 100 nM HASF recombinant protein for the indicated times. HASF batch 1 and 2 represent different batches of recombinant protein. PMA was used as positive control.
Rabbit polyclonal antibodies for phospho-pan PKC, phospho-ERK1/2, phospho-raf, phosphor-PDK1, total Akt were obtained from Cell Signaling Tech. Rabbit polyclonal antibody for phospho-PKC epsilon, phospho-Bad, and GAPDH was obtained from Abeam. HRP-conjugated goat anti-rabbit secondary antibody was obtained from Cell Signaling Tech.

[2] = tested on: primary embryonic rat neurons; test: Caspase 9 assay in H2O2 challenged primary neurons; settings: H2O2 (50 μM) 30 min
Description: FIG. 2E is a bar graph showing caspase activity in primary neurons. Embryonic rat neuronal cells were pre-incubated ±100 nM of HASF recombinant protein for 30 min, and then challenged with 200 μM of H2O2 […]. Apoptosis was determined by caspase 9 levels. The results from two independents experiments are shown. ** P<0.01. Data are presented as means±standard deviation of triplicates.
FIG. 4E is a bar graph showing relative caspase activity in primary neurons. Apoptosis as determined by detection of Caspase-9 activity on primary neuron pre-treated with 178 μM PKC translocation inhibitor peptide for 10 minutes and then with 100 nM of HASF for 30 minutes. Thereafter, cells were challenged with 200 μM H2O2 for 3 hours. All samples were measured in replicas N-4 and the experiments was repeated twice. *P<0.05 vs. non-HASF treated cells.
Embryonic rat cortex tissue was purchased from Neuromics (Edina, Minn.). Primary neurons were isolated, cultured on poly-D-lysine coated glass slides according to provided instructions and allowed to grow for 5 days in complete neurobasal media. Cells were treated with PKC-epsilon inhibitor and recombinant protein HASF as described above for cardiomyocytes). For induction of stress the cells were challenged with H202 (50 μM) for 30 min followed by 3 hours of recovery at 37° C. […]

adult rat cardiomyocytes = test: DNA fragmentation and apoptosis-related protein western blotting
Description: FIGS. 7A-C are a series of photographs showing the effects of HASF in cytochrome c, Bcl2, Bax and DNA degradation. In FIG. 7A, Adult rat cardiomyocytes were treated with +10 nM of HASF for 30 min, and then challenged with 100 μM of H2O2 for 6 h. Mitochondrial fraction or cytosolic fraction or total cell lysate were extracted and separated in 15% SDS-PAGE and transferred to nitrocellulose membrane and probed with mouse anti-Cytochrome C monoclonal antibody. Lane 1-2, —H2O2 control; lane 3-4, +H2O2 control; lane 5-8, four individual samples of +HASF recombinant protein and then +H2O2. In FIG. 7B, Western blot of mitochondrial fractions with Bcl2 and Bax antibodies respectively. Lane 1, —H2O2control; lane 2, +H2O2control; lane 3-6, four individual samples of +HASF and then +H2O2. In FIG. 7C, adult rat cardiomyocytes were treated +10 nM of HASF for 30 min, and then challenged with 100 μM of H2O2 for overnight (˜15 h). Genomic DNA was extracted and separated on 1% agarose gel. H2O2 induced apoptosis in cardiomyocytes was companied by typical DNA fragmentation (laddering) at late-stage apoptosis. Pre-incubation of cardiomyocytes with 10 nM of this HASF recombinant protein inhibited the DNA laddering to a noticeable extends. Lane 1, DNA marker; lane 2, —H2O2control; lane 3-4, +H2O2; lane 5-6, +HASF recombinant protein and then +H2O2.
Adult rat ventricular cardiomyocytes were isolated from 6 weeks old female Sprague-Dawley rat (Harlan World Headquarters, Indianapolis, Ill., USA) hearts by enzymatic digestion and were seeded in (6-well) plates or Delta T culture dishes (Bioptechs, Inc., Pa.) pre-coated with 1 μg/cm2 of laminin (Sigma) at 5×10^4/well and cultured overnight in serum-free M199 medium (Sigma), supplemented with 2 mM of L-carnitine, 5 mM of creatine, 5 mM of taurine, 0.2% of albumin, 100 U/ml of penicillin and 100 μg/ml of streptomycin. Cells were briefly treated without or with PKC inhibitor (with vehicle saponin), then recombinant protein HASF (10 or 100 nM) was added into cells for 30 min, with PBS used as vehicle controls. The cells were challenged with H2O2 for various time points. For the Caspase assays, cardiomyocytes were scraped off plates in lysis buffer and were analyzed by a luminescent plate reader with Caspase-Glo 3/7 and or Caspase-Glo 9 kits (Promega); and for DNA fragmentation, genomic DNA from cardiomyocytes was extracted and separated on 1% agarose gel electrophoreses, with Apoptotic DNA Ladder Extraction Kit (BioVision), according to manufacturers' instructions. […]

[3] = 100 nM, within 5-10 minutes of treatment

B1: HASF: Hypoxia regulated Akt MSC Factor, secreted protein encoded by C3orf58; recombinant human protein without N-signal sequence, SEQ ID NO:1 or 2 (protein, UniProt Q8NDZ4 36-430, looked up)
Divergent protein kinase …: LASWQRNELTDRRFLQLNKCPACFGTSWCRRFLNGQVVFEAWGRLRLLDFLNVKNVYFAQYGEPREGGRRRVVLKRLGSQRELAQLDQSICKRATGRPRCDLLQAMPRTEFARLNGDVRLLTPEAVEGWSDLVHCPSQRLLDRLVRRYAETKDSGSFLLRNLKDSERMQLLLTLAFNPEPLVLQSFPSDEGWPFAKYLGACGRMVAVNYVGEELWSYFNAPWEKRVDLAWQLMEIAEQLTNNDFEFALYLLDVSFDNFAVGPRDGKVIIVDAENVLVADKRLIRQNKPENWDVWYESKFDDCDKEACLSFSKEILCARATVDHNYYAVCQNLLSRHATWRGTSGGLLHDPPSEIAKDGRLEALLDECANPKKRYGRFQAAKELREYLAQLSNNVR
modifications: 6xHis tag
[1]; 100 nM HASF
  activity (phosphorylation) of the other PKC isoforms tested (PKC α/β, σ, σ/λ, θ): did not affect
[1]; 100 nM HASF, 5 and 30 min
  phosphorylation of PKCe: increased the phosphorylation of PKCe selectively
[1]; 100 nM, 0-60 minutes
  phosphorylation of PDK1: not increased
[1]; [3]
  phosphorylation of ERK 1/2: increased dramatically
  phosphorylation of PKC: increased dramatically
  phosphorylation of Raf: increased dramatically
[2]; 30 min pretreatment, P<0.05
  attenuation of Caspase 9 levels: 20-40%
[2]; HASF 30 min
  Caspase 9 levels in challenged neuronal cells: significantly reduced
Adult rat cardiomyocytes; 10 nM for 30 min, 100 μM H2O2
  mitochondrial anti-apoptotic Bcl-2 protein level: increased levels
Adult rat cardiomyocytes; 10 nM for 30 min, 100 μM H2O2 6 h
  cytochrome C release into the cytosol: prevention of cytochrome C release into the cytosol
Adult rat cardiomyocytes; 10 nM for 30 min, 100 μM H2O2 overnight (~15 h)
  DNA fragmentation: reduction of DNA fragmentation
Adult rat cardiomyocytes; H2O2 induced apoptosis
  translocation of Bax protein from cytosol into mitochondria: did not prevent

From US20120172306A1, “Use of HASF as a Protective Agent Against Ischemic Tissue Damage” (Duke University, priority 2009, published 2012)
